Experimental findings from patent US20240417436A1 (BRIGHT PEAK THERAPEUTICS, published 2024) are described below.

[ ]: non-standard residue; d: D form. Ygp = O-(8x polyethylene glycol-amino)-tyrosine; Yn3 = O-(9x polyethylene glycol-azido)-tyrosine; hSer = N[C@@H](CCO)C(=O)O; Nle = CCCC[C@H](N)C(=O)O

This test addresses T1, IL-2 receptor βγ complex on pan T cells (human, UniProt P14784 27-551; P31785 23-369).
T1 sequence (looked up) 1: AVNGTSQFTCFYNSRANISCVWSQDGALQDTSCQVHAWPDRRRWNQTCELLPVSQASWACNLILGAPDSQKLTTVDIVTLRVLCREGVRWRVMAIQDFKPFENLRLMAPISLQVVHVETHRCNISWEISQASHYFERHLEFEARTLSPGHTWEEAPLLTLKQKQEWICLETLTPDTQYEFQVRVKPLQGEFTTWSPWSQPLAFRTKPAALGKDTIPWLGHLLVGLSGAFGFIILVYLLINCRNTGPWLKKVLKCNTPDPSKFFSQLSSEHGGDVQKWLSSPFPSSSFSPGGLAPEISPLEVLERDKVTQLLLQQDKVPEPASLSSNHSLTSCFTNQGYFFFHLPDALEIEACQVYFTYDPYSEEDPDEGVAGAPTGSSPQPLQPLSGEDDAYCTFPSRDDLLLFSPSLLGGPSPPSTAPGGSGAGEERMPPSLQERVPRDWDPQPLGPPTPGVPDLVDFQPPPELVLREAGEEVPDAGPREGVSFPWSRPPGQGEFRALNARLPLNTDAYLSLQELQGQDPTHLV
T1 sequence (looked up) 2: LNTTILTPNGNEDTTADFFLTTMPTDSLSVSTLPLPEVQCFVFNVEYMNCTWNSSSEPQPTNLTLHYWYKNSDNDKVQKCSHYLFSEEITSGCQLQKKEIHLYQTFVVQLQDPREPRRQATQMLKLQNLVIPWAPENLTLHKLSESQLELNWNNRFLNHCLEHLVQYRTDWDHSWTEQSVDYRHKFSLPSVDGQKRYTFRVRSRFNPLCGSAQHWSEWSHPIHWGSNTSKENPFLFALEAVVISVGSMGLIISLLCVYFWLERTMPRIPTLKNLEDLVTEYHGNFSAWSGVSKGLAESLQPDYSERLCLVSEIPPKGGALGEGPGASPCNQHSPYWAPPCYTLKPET
The test is described as follows: cell-based or functional assay.

B1: CMP-146, MMP2 cleaved (ligand)
chain: APTSSSTKKTKLQLEHLLLDLQ[Nle]ILNGINNYKNPKLTR[Nle]L[hSer][Yn3]KF[Ygp][Nle]PKKATELKHLQCLEEELKPLEEVL[hSer]LAQSKNFHLRPRDLISNINVIVLELKGSETTF[hSer]CEYADETATIVEFLNRWITFSQSIISTLT
modifications: not fully specified (residue 11); ends and bridges not checked; also: MMP2-cut remnant of cleavable moiety on Lys11 side chain, not given here
As for B1, the “Average EC50, pSTAT5 assay in pan T cells, MMP2 cleaved molecule” value (“Average EC50 … MMP2 cleaved molecule” below) was determined as 0.92 nM.

B2: CMP-146 (ligand)
chain: APTSSSTKKTKLQLEHLLLDLQ[Nle]ILNGINNYKNPKLTR[Nle]L[hSer][Yn3]KF[Ygp][Nle]PKKATELKHLQCLEEELKPLEEVL[hSer]LAQSKNFHLRPRDLISNINVIVLELKGSETTF[hSer]CEYADETATIVEFLNRWITFSQSIISTLT
modifications: not fully specified (residue 11); ends and bridges not checked; also: cleavable moiety on Lys11 side chain, structure not given here
On to B2, for which the “Average EC50, pSTAT5 assay in pan T cells, intact molecule” value amounted to 4.29 nM.

B3: CMP-147, MMP2 cleaved (ligand)
chain: APTSSSTKKTQLKLEHLLLDLQ[Nle]ILNGINNYKNPKLTR[Nle]L[hSer][Yn3]KF[Ygp][Nle]PKKATELKHLQCLEEELKPLEEVL[hSer]LAQSKNFHLRPRDLISNINVIVLELKGSETTF[hSer]CEYADETATIVEFLNRWITFSQSIISTLT
modifications: not fully specified (residue 13); ends and bridges not checked; also: MMP2-cut remnant of cleavable moiety on Lys13 side chain, not given here
Take B3: the “Average EC50 … MMP2 cleaved molecule” value came to 1.29 nM.

B4: CMP-145, MMP2 cleaved (ligand)
chain: APTSSSTKKTQLQLEHLLLDLQKILNGINNYKNPKLTR[Nle]L[hSer][Yn3]KF[Ygp][Nle]PKKATELKHLQCLEEELKPLEEVL[hSer]LAQSKNFHLRPRDLISNINVIVLELKGSETTF[hSer]CEYADETATIVEFLNRWITFSQSIISTLT
modifications: not fully specified (residue 23, bridges); also: Lys23 side chain bears KKPLGLAG (branched PEG) peptide cut by MMP2, remnants stay attached, cut site not given here
As for B4, the “Average EC50 … MMP2 cleaved molecule” value came out at 1.43 nM.

B5: CMP-147 (ligand)
chain: APTSSSTKKTQLKLEHLLLDLQ[Nle]ILNGINNYKNPKLTR[Nle]L[hSer][Yn3]KF[Ygp][Nle]PKKATELKHLQCLEEELKPLEEVL[hSer]LAQSKNFHLRPRDLISNINVIVLELKGSETTF[hSer]CEYADETATIVEFLNRWITFSQSIISTLT
modifications: not fully specified (residue 13); ends and bridges not checked; also: cleavable moiety on Lys13 side chain, structure not given here
For the molecule B5, the “Average EC50, pSTAT5 assay in pan T cells, intact molecule” value turned out to be 3.86 nM.

B6: CMP-144, MMP2 cleaved (ligand)
chain: APTSSSTKKTQLQLEHLLLDLQKILNGINNYKNPKLTR[Nle]L[hSer][Yn3]KF[Ygp][Nle]PKKATELKHLQCLEEELKPLEEVL[hSer]LAQSKNFHLRPRDLISNINVIVLELKGSETTF[hSer]CEYADETATIVEFLNRWITFSQSIISTLT
modifications: not fully specified (residue 23); ends and bridges not checked; also: MMP2-cut remnant of cleavable moiety on Lys23 side chain, not given here
On to B6, for which the “Average EC50 … MMP2 cleaved molecule” value was 0.63 nM.
